Assays:
[1] = target: T1, human B7H3 (Homo sapiens, UniProt Q5ZPR3); assay: FACS binding to human B7H3-expressing cells MCF-7
T1 construct: MCF-7 cells expressing human full-length B7H3; host or cells: MCF-7
T1 sequence (Q5ZPR3 29-534): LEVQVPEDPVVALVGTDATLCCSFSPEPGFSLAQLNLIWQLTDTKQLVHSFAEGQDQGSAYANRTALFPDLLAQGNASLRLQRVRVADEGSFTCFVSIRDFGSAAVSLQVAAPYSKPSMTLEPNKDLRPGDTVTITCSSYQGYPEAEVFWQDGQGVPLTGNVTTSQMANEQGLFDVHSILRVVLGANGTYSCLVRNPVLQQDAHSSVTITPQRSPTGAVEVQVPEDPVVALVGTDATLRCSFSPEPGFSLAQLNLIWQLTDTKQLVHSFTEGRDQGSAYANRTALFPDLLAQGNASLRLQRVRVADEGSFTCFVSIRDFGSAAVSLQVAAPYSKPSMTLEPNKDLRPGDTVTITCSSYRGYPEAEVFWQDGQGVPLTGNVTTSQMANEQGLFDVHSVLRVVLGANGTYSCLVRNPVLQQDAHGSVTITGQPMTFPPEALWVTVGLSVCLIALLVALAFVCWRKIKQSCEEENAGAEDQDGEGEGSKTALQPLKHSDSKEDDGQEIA
Procedure: FACS was used to detect the binding of antibodies to human B7H3. This method allows quantitative analysis and identification of specific molecules expressed on the surface of living cells. Unlabeled cells were used as a control to set a threshold before the assay, and the percentage change for each group that exceeded the fluorescence intensity threshold was analyzed. MCF-7 cells expressing human full-length B7H3 (1×10^5 cells/well) were incubated with various concentrations of antibodies (3.16-fold serially diluted with 1×DPBS/1% BSA from 50 nM to 0.0005 nM) in a volume of 100 μL/well in a refrigerator set to 4° C. for 1 h. Anti-human B7H3 reference antibody enoblituzumab (MacroGeneics) was used as a positive control. Human IgG1 isotype antibody was used as a negative control. After washing the cells with 1×DPBS/1% BSA, Alexa 647 goat anti-human antibody (diluted in a 1:500 ratio in 1×DPBS/1% BSA) was added. The cells were incubated in a refrigerator set to 4° C. for 0.5 h in the dark. The mean fluorescence intensity (MFI) of the cells was measured by a flow cytometry and analyzed by FlowJo. EC50 values were calculated by four-parameter non-linear regression analysis using GraphPad Prism 7 software.

[2] = tested on: cynomolgus monkey B7H3; assay: SPR binding affinity for cynomolgus monkey B7H3 (Biacore 8K); conditions: analyte cynomolgus monkey B7H3
Procedure: The affinity of antibodies for cynomolgus monkey B7H3 was determined using surface plasmon resonance (SPR). The affinity of antibodies for cynomolgus monkey B7H3 was determined by Biacore 8K. An activator was prepared by mixing 400 mM EDC and 100 mM NHS (GE) immediately prior to injection into the channel. The CM5 sensor chip was activated for 420 seconds with the activator. Goat anti-human Fe IgG (30 μg/mL in 10 mM NaAc, pH 4.5) was then injected into the channel at a flow rate of 10 μL/min for 420 seconds. The chip was deactivated by 1 M ethanolamine hydrochloric acid. The antibodies diluted in running buffer (1×HBS-EP+) were injected into the channel at a flow rate of 10 μL/min for 30 seconds. […] Glycine (10 mM, pH 1.5) was injected as regeneration buffer after the dissociation phase.
The sensorgrams for the reference channel and the buffer channel were subtracted from the test sensorgrams. The experimental data for 6 analyte concentrations (50 nM, 25 nM, 12.5 nM, 6.25 nM, 3.125 nM, and 1.563 nM) were fitted with a 1:1 binding model. The molecular weight of the cynomolgus monkey B7H3 used in the calculation was 49 kDa.
(§1) The experimental data were fitted by a 1:1 binding model bundled with the Biacore 8K evaluation software.

[3] = tested on: MCF-7 cells expressing human full-length B7H3; assay: Internalization test (HCS) on MCF-7; assay type: cell-based; conditions: MCF-7, HCS
Procedure: Antibody internalization was determined by operetta CLS (PerkinElmer), a high-content imaging and analysis system that can collect and analyze images of samples at high speed and high sensitivity. MCF-7 cells expressing human full-length B7H3 (1.5×10^4 cells/well) were seeded into a 96-well clear bottom black plate pre-coated with 8 μg/mL poly-D-lysine. After incubation in an incubator set to 37° C., 5% CO2 overnight, various concentrations of the antibodies (3.16-fold serially diluted with 1×DPBS/1% BSA from 50 nM to 0.0005 nM) were incubated in a volume of 100 μL/well in a refrigerator set to 4° C. for 2 h. Anti-human B7H3 reference antibody enoblituzumab (MacroGeneics) was used as a positive control. Human IgG1 isotype antibody was used as a negative control. After washing the cells with 1×DPBS/1% BSA, Alexa 647 goat anti-human antibody (diluted in a 1:500 ratio in 1×DPBS/1% BSA) was added. The cells were incubated in a refrigerator set to 4° C. for 1 h in the dark. The cells were then washed once and resuspended in 1×DPBS/1% BSA at 37° C. for 2 h. […] The mean fluorescence intensity (MFI) of the cells was measured and analyzed by operetta CLS. EC50 values were calculated by four-parameter non-linear regression analysis using GraphPad Prism 7 software.

[4] = target: T2, human 2IgB7H3 (Homo sapiens, UniProt Q5ZPR3); assay: SPR binding affinity for human 2IgB7H3 (Biacore 8K); conditions: analyte human 2IgB7H3
T2 construct: His tag; purchased ACRO (ACROBiosystems) B73-H52E2
T2 sequence (Q5ZPR3 29-316 isoform Q5ZPR3-2 limits assumed): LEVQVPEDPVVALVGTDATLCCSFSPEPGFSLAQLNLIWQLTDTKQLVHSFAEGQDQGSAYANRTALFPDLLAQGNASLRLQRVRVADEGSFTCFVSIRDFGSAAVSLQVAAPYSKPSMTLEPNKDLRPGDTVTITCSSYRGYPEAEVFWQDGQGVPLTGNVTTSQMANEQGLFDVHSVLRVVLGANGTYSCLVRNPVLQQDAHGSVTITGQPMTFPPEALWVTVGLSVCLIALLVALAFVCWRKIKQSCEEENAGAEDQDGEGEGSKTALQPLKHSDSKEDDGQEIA
Procedure: The affinity of antibodies for human 2IgB7H3 was determined using surface plasmon resonance (SPR). The affinity of antibodies for human 2IgB7H3 was determined by Biacore 8K. An activator was prepared by mixing 400 mM EDC and 100 mM NHS (GE) immediately prior to injection into the channel. The CM5 sensor chip was activated for 420 seconds with the activator. Goat anti-human Fc IgG (30 μg/mL in 10 mM NaAc, pH 4.5) was then injected into the channel at a flow rate of 10 μL/min for 420 seconds. The chip was deactivated by 1 M ethanolamine hydrochloric acid. The antibodies diluted in running buffer (1×HBS-EP+) were injected into the channel at a flow rate of 10 μL/min for 30 seconds. Seven concentrations (500 nM, 250 nM, 125 nM, 62.5 nM, 31.25 nM, 15.625 nM, and 7.813 nM) of analyte human 2IgB7H3 were injected sequentially into the channel at a flow rate of 30 μL/min for an association phase of 120 seconds, followed by dissociation of 300 seconds. Glycine (10 mM, pH 1.5) was injected as regeneration buffer after the dissociation phase.
The sensorgrams for the reference channel and the buffer channel were subtracted from the test sensorgrams. The experimental data were fitted with a 1:1 binding model. The molecular weight of the human 2IgB7H3 used in the calculation was 25.2 kDa.
as §1

[5] = target: T3, human 4IgB7H3 (Homo sapiens, UniProt Q5ZPR3); assay: SPR binding affinity for human 4IgB7H3 (Biacore 8K); conditions: analyte human 4IgB7H3
T3 construct: Uniprot ID: Q5ZPR3, amino acids 29-461; 6xHis (C); made in house; host or cells: Expi293F
T3 sequence (Q5ZPR3 29-461): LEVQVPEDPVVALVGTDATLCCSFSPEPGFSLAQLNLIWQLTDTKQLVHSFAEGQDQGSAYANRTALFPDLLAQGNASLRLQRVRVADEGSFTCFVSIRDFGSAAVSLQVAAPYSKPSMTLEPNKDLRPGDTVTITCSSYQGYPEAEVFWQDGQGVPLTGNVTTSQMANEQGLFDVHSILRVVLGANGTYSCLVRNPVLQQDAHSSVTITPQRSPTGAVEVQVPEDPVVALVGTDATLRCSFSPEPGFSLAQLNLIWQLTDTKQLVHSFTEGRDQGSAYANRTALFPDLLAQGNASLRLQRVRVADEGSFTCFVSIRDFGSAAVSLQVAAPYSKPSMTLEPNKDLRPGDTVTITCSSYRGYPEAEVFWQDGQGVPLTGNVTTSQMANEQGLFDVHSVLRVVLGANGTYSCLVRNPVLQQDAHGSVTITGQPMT
Procedure: The affinity of antibodies for human 4IgB7H3 was determined using surface plasmon resonance (SPR). The affinity of antibodies for human 4IgB7H3 was determined by Biacore 8K. An activator was prepared by mixing 400 mM EDC and 100 mM NHS (GE) immediately prior to injection into the channel. The CM5 sensor chip was activated for 420 seconds with the activator. Goat anti-human Fc IgG (30 μg/mL in 10 mM NaAc, pH 4.5) was then injected into the channel at a flow rate of 10 μL/min for 420 seconds. The chip was deactivated by 1 M ethanolamine hydrochloric acid. The antibodies diluted in running buffer (1×HBS-EP+) were injected into the channel at a flow rate of 10 μL/min for 30 seconds. Seven concentrations (100 nM, 50 nM, 25 nM, 12.5 nM, 6.25 nM, […], and 1.563 nM) of analyte human 4IgB7H3 were injected sequentially into the channel at a flow rate of 30 μL/min for an association phase of 180 seconds, followed by dissociation of 3600 seconds. Glycine (10 mM, pH 1.5) was injected as regeneration buffer after the dissociation phase.
The sensorgrams for the reference channel and the buffer channel were subtracted from the test sensorgrams. The experimental data were fitted with a 1:1 binding model. The molecular weight of the human 4IgB7H3 used in the calculation was 47.8 kDa.
as §1

[6] = tested on: cynomolgus monkey B7H3; assay: FACS binding to cynomolgus monkey B7H3-transfected stable cell pool
Procedure: A cell pool expressing cynomolgus monkey B7H3 was generated. Briefly, FlipinCHO cells were transfected with a pcDNA5/pOG44 expression vector containing full-length cynomolgus monkey B7H3 using Lipofectamine 2000 transfection kit (Invitrogen, 11668027) according to the manufacturer's protocol. At 48 h post-transfection, the cells were subcultured into a selective medium (F12 containing 10% FBS and 600 μg/mL hygromycin B) in a T75 flask. After two or three passages of selection, a cell pool stably and highly expressing cynomolgus monkey B7H3 (WBP3XX088-FlpinCHO.cProl.pool) was obtained by hygromycin B selection and BD FACSMelody™ cell sorting.
FACS was used to detect the binding of antibodies to cynomolgus monkey B7H3. FlpinCHO cells were transfected with cynomolgus monkey B7H3 (W3XX088-FlpinCHO.cProl.pool) (1×10^5 cells/well), and the transfected cells were incubated with various concentrations of antibodies (3.16-fold serially diluted with 1×DPBS/1% BSA from 50 nM to 0.0005 nM) in a volume of 100 μL/well in a refrigerator set to 4° C. for 1 h. Anti-human B7H3 reference antibody enoblituzumab (MacroGeneics) was used as a positive control. […] The mean fluorescence intensity (MFI) of the cells was measured by a flow cytometry and analyzed by FlowJo. EC50 values were calculated by four-parameter non-linear regression analysis using GraphPad Prism 7 software.

B1: Enoblituzumab (MacroGenics): anti-B7H3 benchmark antibody, sequences SEQ ID NOs: 117 and 119 of US20120294796A1 (antibody, chains of the INN, looked up)
heavy: EVQLVESGGGLVQPGGSLRLSCAASGFTFSSFGMHWVRQAPGKGLEWVAYISSDSSAIYYADTVKGRFTISRDNAKNSLYLQMNSLRDEDTAVYYCGRGRENIYYGSRLDYWGQGTTVTVSSASTKGPSVFPLAPSSKSTSGGTAALGCLVKDYFPEPVTVSWNSGALTSGVHTFPAVLQSSGLYSLSSVVTVPSSSLGTQTYICNVNHKPSNTKVDKRVEPKSCDKTHTCPPCPAPELVGGPSVFLLPPKPKDTLMISRTPEVTCVVVDVSHEDPEVKFNWYVDGVEVHNAKTKPPEEQYNSTLRVVSVLTVLHQDWLNGKEYKCKVSNKALPAPIEKTISKAKGQPREPQVYTLPPSREEMTKNQVSLTCLVKGFYPSDIAVEWESNGQPENNYKTTPLVLDSDGSFFLYSKLTVDKSRWQQGNVFSCSVMHEALHNHYTQKSLSLSPG
light: DIQLTQSPSFLSASVGDRVTITCKASQNVDTNVAWYQQKPGKAPKALIYSASYRYSGVPSRFSGSGSGTDFTLTISSLQPEDFATYYCQQYNNYPFTFGQGTKLEIKRTVAAPSVFIFPPSDEQLKSGTASVVCLLNNFYPREAKVQWKVDNALQSGNSQESVTEQDSKDSTYSLSSTLTLSKADYEKHKVYACEVTHQGLSSPVTKSFNRGEC
**Q.** B1 was tested. Which “Maximum MFI” value [1] did it give?
**A.** 4644

**Q.** And the ka [2]?
**A.** 185000 M⁻¹ s⁻¹

**Q.** What about the kd [2] of the same molecule?
**A.** 8.14e-05 s⁻¹

**Q.** And the “Antibody internalization Maximum MFI” value [3]?
**A.** 39777

**Q.** What about the ka [4] of the same molecule?
**A.** 64400 M⁻¹ s⁻¹

**Q.** And the kd [4]?
**A.** 0.0168 s⁻¹

**Q.** And the ka [5]?
**A.** 124000 M⁻¹ s⁻¹

**Q.** What about the kd [5] of the same molecule?
**A.** 0.000126 s⁻¹

**Q.** And the “Maximum MFI” value [6]?
**A.** 19700
